Numbering of substitutions follows the chain as printed. Where two headings read alike, the source gives them in different places.
Key:
pepsin [1] = molecular target: T1, pepsin (Sus scrofa, UniProt P00791); experiment: Gastric stability of superoxide dismutases (method of Example 10, gastric treatment with pepsin); format: in vitro ADME
T1 construct: purchased Sigma P7000; host or cells: porcine gastric mucosa (natural source)

pepsin [2] = molecular target: T1, pepsin; experiment: as above; format: in vitro ADME; remark: listed apart in the source
Method: retains only 26% of its activity upon gastric treatment in the presence of pepsin.
Two commercial SODs were tested as references: SOD-Mn, from E. coli Sigma S5639 with a activity of 10240 U/mg EP and only 26% activity left after gastric press for 30 min; and SOD-Cu/Zn from Bovine expressed in E. coli Sigma S9697 with activity of 6108 U/mg EP and only 35% activity left after gastric press for 30 min.

[3] = Thermal stability of superoxide dismutases at different pH, Tm unfolding temperature (method of Example 11); format: physicochemical
Method: Tm: The term Tm, as used in the Examples refers to the temperature at which 50% of the protein molecules are unfolded and 50% of the protein molecules are folded.
Test were performed on the super oxide dismutases of the invention to measure the temperature at different acidity/alkalinity to determine the temperature at which the polypeptide unfolds and denatures. […] A further embodiment is directed to an animal feed additive comprising a fungal superoxide dismutase thermally stable at pH 7, when measured according to the method described in Example 11, such that protein unfolding (Tm) is 45° C. or more.

[4] = Superoxide dismutase activity (method of Example 9, pH 7.8); format: biochemical; details: SOD activity
[5] = Growth performance of early weaned piglets fed SOD and CAT; format: in vivo
Method: The effect of antioxidant enzymes (SOD and CAT) alone at different doses and in combination on the growth performance of early weaned piglets was evaluated in a trial run. A total of eight treatments were tested during the study: 6 test groups: SOD (Product A, SEQ ID No. 1 at 1250 and 2500 U/kg), CAT (Product B, SEQ ID NO 7 and Product C, […]; […]); were compared against a Positive Control feed (fed with Avilamycin at 90.7 g/lb) and a Negative Control (standard ration). Each of treatments contained 12 replicates per treatment randomly assigned and containing 5 male piglets per replicate for a total number of 480 animals on study. Piglets were randomly assigned to treatments on Trial Day 0 (post-weaning at 21 days of age). At 42 days of age, live performance (growth weight gain and feed conversion) was determined. All rations were formulated with an increase of approximately 5-6% additional crude protein above normal commercial levels. Blood samples were collected at day 0, 14 and 42 to evaluate oxidative stress parameters at DSM. Gut tissue samples at the duodenum and ileum to evaluate gene expression linked to oxidative stress, and intestinal content (ileum and caecum), to study the microbiome population, were collected from 12 animals at the beginning of the trial (baseline) and one animal per pen (12 piglets×8 treatments) at day 14 and at day 42.
The commercial-simulated test model employed in this study used piglets reared under a normal swine industry Starter diet (Trial Day 0-21) and Grower diet (Trial Day 21-42), reared on slatted floors. Ration formulations were conducted via computer-generated linear regression program that simulates formulations conducted during practical swine production techniques. Treatments were tested in male piglets. Piglets were continuously fed their experimental diets from time of placement on Trial Day 0 to Trial Day 42.
Piglets were weighed and randomly placed into each pen on Trial Day 0 and fed their respective diets. Each pen had sufficient floor density, feeder and waterer space for each grow-out area for the piglets. Following 42 days of grow-out, piglets were weighed, feed consumption determined, and feed conversion (feed consumed/[…]) calculated.
A total of 500 male piglets (a sufficient number to ensure availability of at least 480 healthy male piglets for the conduct of the study) were obtained from a swine breeder on Trial Day 0 (upon weaning, when the piglets were 21 days of age). Piglets were fed their respective treatment feed ad libitum from Trial Day 0 to Trial Day 42.
Each experimental test unit of swine pens was housed in separated pens, located in a room containing forced air heaters with a cross-house ventilation system. Piglets were placed in a 6 ft×6 ft pen floor area with a minimum of 9.0 ft^2 per piglet (without feeder and waterer space) provided. At least two nipple drinkers per pen (via well water) provided water. Piglets were observed daily for overall health, behavior and/or evidence of toxicity, and environmental conditions. Temperature in the test facility was checked daily. Drinking water and feed were confirmed to be provided ad libitum. No type of medication (other than test material) was administered during the entire feeding period.
Live performance body weights and feed intakes were collected on Days 0, 14, 21, and 42 during the growing period. Weight gain, feed intake, feed:gain ratio (feed efficiency) were calculated for 0-42 days of age between weaning and Trial Day 42. Differences between piglets fed control and test groups were statistically evaluated at P<0.05 in a typical ANOVA analysis of variance test model, employing Treatment×Replicate RCB (Randomized Complete Block). Control group was considered to be the following: Treatment 2, containing Avilamycin at 90.7 g/lb.
Diets were fed in two feed phases: Starter diet (0-21 days of age) and Grower diet (21-42 days of age). All diets were offered ad libitum, without restriction. […]

[6] = Piglet trial, growth performance d0-42; format: in vivo; details: piglets, days 0-42
From the text: FIG. 17: illustrates the Conversion Ratio (FCR) in piglets from days 0-42. There was significant difference observed in growth performance between positive and negative control.

T1 sequence (P00791 60-385): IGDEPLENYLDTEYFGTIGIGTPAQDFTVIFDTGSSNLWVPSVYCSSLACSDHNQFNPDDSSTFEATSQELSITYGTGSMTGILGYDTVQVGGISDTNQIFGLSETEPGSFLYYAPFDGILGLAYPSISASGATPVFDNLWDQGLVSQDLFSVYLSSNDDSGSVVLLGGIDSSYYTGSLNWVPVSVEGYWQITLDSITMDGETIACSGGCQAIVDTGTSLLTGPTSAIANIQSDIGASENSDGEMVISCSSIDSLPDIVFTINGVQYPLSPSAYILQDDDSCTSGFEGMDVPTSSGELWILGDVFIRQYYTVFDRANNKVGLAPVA

S9697 Bovine Cu/Zn SOD SIGMA: commercially available superoxide dismutase from bovine erythrocytes and expressed in E. coli of sequence A
Gastric stability after 15 min (remaining activity, approx, %) (pepsin [1]; 0.25 h): 35% | activity left after gastric press for 30 min (pepsin [2]): 35% | activity retained upon gastric treatment in the presence of pepsin (pepsin [2]): 26% | loss of activity under gastric stability studies (pepsin [2]): 65% | activity retained at 50° C. ([3]; 50° C., method of Example 11): very little | Tm (unfolding temperature) ([3]; pH 3): 50.8 °C | Tm (unfolding temperature) ([3]; pH 4): 59.3 °C | Tm (unfolding temperature) ([3]; pH 5): 63.9 °C | Tm (unfolding temperature) ([3]; pH 6): 66.2 °C | Tm (unfolding temperature) ([3]; pH 7): 65.2 °C | Tm (unfolding temperature) ([3]; pH 8): 63.1 °C | Tm (unfolding temperature) ([3]; pH 9): 61.0 °C | Tm (unfolding temperature) ([3]; pH 10): 57.0 °C | Relative Activity Unit (U/mg EP) [4]: 6108 U/mg EP

COC[C@H]1O[C@@H](OC2OC[C@@H]3O[C@]4(O[C@H]3[C@H]2OC(=O)C(C)C)O[C@H](C)[C@@](O)(C(C)=O)[C@@H]2OCO[C@H]24)[C@@H](OC)[C@@H](O)[C@@H]1O[C@@H]1O[C@H](C)[C@H](OC)[C@H](O[C@H]2C[C@@]3(C)OC4(C[C@@H](O)[C@H](O[C@H]5C[C@@H](O)[C@H](OC(=O)c6c(C)c(Cl)c(O)c(Cl)c6OC)[C@@H](C)O5)[C@@H](C)O4)O[C@@H]3[C@@H](C)O2)[C@H]1O (stereo partly drawn) [T2, Avilamycin]
feed conversion (FCR) ([5]; d0-d42, vs Negative Control, SOD+CAT 400:100 U/kg): improved | Average Body Wt. Gain (kg) Day 0-14 ([5]; piglets, day 0-14): 3.720 kg | Feed Conversion Corrected Day 0-14 ([5]; piglets, day 0-14): 1.215 | Feed Intake (kg/pig) Day 0-14 ([5]; piglets, day 0-14): 4.52 kg/pig | Mortality % Day 0-14 ([5]; piglets, day 0-14): 0.000% | Average Body Wt. (kg) Day 14 ([5]; piglets, day 14): 9.215 kg | Body Weight Coefficient of Variation (Day 14) ([5]; piglets, day 14): 4.700

B1: SEQ ID NO 18: superoxide dismutase from Cladobotryum sp. (protein)
chain: MARQGLFLASLLIFPFASCAASEDPTGSKPQFASIPDSQQALLGSFSSTMSVSTFSLPALPYAYDALEPSISAQIMELHHSKHHQTYVNNLNNALKSYFVAISANDVPSQIALQAAVKFNGGGHINHSLFWENLCPATSPDADPQSAPTLAAEISKTWGSLEGFKDAMSKALLGLQGSGWGWLVKDGRALRIVTTKDQDPVVGGEVPIFGIDMWEHAYYLQYLNGKAAYVENIWKVINWKTAERRFIGDRDDAFKILKASI
modifications: Cladobotryum sp
activity retained under gastric stability studies (pepsin [2]): at least 40%

B2: S5639 from Sigma Mn-SOD Escherichia coli: commercially available bacterial (from E. coli) Mn-SOD (protein, UniProt P00448 2-206, looked up)
Superoxide dismutase [Mn]: SYTLPSLPYAYDALEPHFDKQTMEIHHTKHHQTYVNNANAALESLPEFANLPVEELITKLDQLPADKKTVLRNNAGGHANHSLFWKGLKKGTTLQGDLKAAIERDFGSVDNFKAEFEKAAASRFGSGWAWLVLKGDKLAVVSTANQDSPLMGEAISGASGFPIMGLDVWEHAYYLKFQNRRPDYIKEFWNVVNWDEAAARFAAKK
Gastric stability after 15 min (remaining activity, approx, %) (pepsin [1]; after 15 min, method of Example 10): 26% | loss of activity under gastric stability studies (pepsin [2]): 57% | activity left after gastric press for 30 min (pepsin [2]; 30 min): 26% | Relative Activity Unit (U/mg EP) [4]: 10240 U/mg EP

B3: Catalase: Catalase fed alone in the piglet trial of FIG. 17 (protein)
chain: MRHFWLLPAVAGIAGAQCPYLSGEMSFTQEQDNAGDTIEVTEQTIDNTLYVNDTGSYMTTDFGTPISDQYSLKAGRRGPTLLEDFIFRQKLQRFDHERVPERVVHARGAGAYGTFKSYADWSNVTAADFLSANEKETPMFCRFSTVVGFRGSVDTARDVHGHACRFYTDEGNYDIVGINFAPFFIQDAIQFPDLVHAIKPMPNNEIPQAATAHTSAWDFFSQQSTALHSALWLMSGNGIPRSFRHMNGYGVHSFRFVAANGTSKVVRYRWKSQQGVASLVWEEAQAAAGKNSDYHRQDLYNAIANGHYPKYELQAQIMDEADMLRFGFDLLDPTKLVPEEVVPYTPLGMMELNANPTNYFAEVEQAGFQPGHVVPGIDFTDDPLLQGRLFSYLDTQLTRHGGPNFEQIPVNRPRKPVHNNNRDGFGQQQIPTNNWAYTPNTMSNGYPMQANQTHGHGFFTSPYRYASGHLIREPSPTFHDHWSQPAMFWNSLIPAEQQMVVNAIVFENSKVNSPHVRKNVVNQLNMVNNNLAVRVARGLGLDEPSPNPTYYTSNKTSNVGTFGKPLLSIEGLQVGFLASNSHPESIKQGQAMAAQFSAAGVDLNIVTEAYADGVNTTYALSDAIDFDALIIADGVQSLFASPSLANQMNSTATSTLYPPARPYQILVDSFRYGKPVAAVGSGSAALKNAGIDTSRSGVYTGSSETTENIAKEVLKGLYTFRFVDRFALDE
modifications: Aspergillus niger; mat_peptide (1)..(740)
Feed Conversion Ratio (FCR) [6]: significantly improved the FCR

B4: SEQ ID NO 35: superoxide dismutase; donor Trichoderma rossicum in b755, Trichoderma sp-44174 in b566 (protein)
chain: MRASGILTVLSLAVSSCVAEKDAPIVTGNPHSVEYKATLPKKPFFSNAALVGNVKGYVSAVAAPSGKGVRFSVQFENFPKSGGPFMYHIHEEPATNGNCTSTLAHLDPYHRGETPACDSSKPETCQVGDLSGKYGKITSDPFVAEYFDLYTSLQPGSPAFFGNRSIVVHYANKTRLTCANFAKLPVSDTATKAHTTTSAHHTVIHGPAASGGRHNTTSSHNITGPHYTTGSHHTTDVSPTGSLNPTGIVTAPGSPTTPATFTTVAAGGSASATSSIVPFPGAASGNRVSLALLSGVVAAMFFSL
modifications: Trichoderma sp-44174
notes: superoxide dismutase; donor Trichoderma rossicum, Trichoderma sp-44174 in b566
activity retained under gastric stability studies (pepsin [2]): at least 40% | Relative Activity Unit (U/mg EP) [4]: ~3000 U/mg EP

B5: SEQ ID NO 37: superoxide dismutase; donor Trichoderma sp-54723 in b755, Trichoderma rossicum in b566 (protein, listed as Trichoderma rossicum)
chain: B4 chain with T8A, S16G, V18I
activity retained under gastric stability studies (pepsin [2]): at least 40%

From patent US20220218001A1, “REDOX ENZYMES IN ANIMAL FEED COMPOSITIONS” (Novozymes A/S, priority 2019, published 2022)
